Like-named read-outs stand apart in the source and are kept apart here.
B1: Full-length CARD8 (T60 isoform), wild type, co-expressed with DPP9S for cryo-EM (natural protein, human, UniProt Q9Y2G2-5 1-537, looked up)
chain: MEKKECPEKSSSSEEELPRRDSGSSRNIDASKLIRLQGSRKLLVDNSIRELQYTKTGIFFQAEACVTNDTVYRELPCVSETLCDISHFFQEDDETEAEPLLFRAVPECQLSGGDIPSVSEEQESSEGQDSGDICSEENQIVSSYASKVCFEIEEDYKNRQFLGPEGNVDVELIDKSTNRYSVWFPTAGWYLWSATGLGFLVRDEVTVTIAFGSWSQHLALDLQHHEQWLVGGPLFDVTAEPEEAVAEIHLPHFISLQAGEVDVSWFLVAHFKNEGMVLEHPARVEPFYAVLESPSFSLMGILLRIASGTRLSIPITSNTLIYYHPHPEDIKFHLYLVPSDALLTKAIDDEEDRFHGVRLQTSPPMEPLNFGSSYIVSNSANLKVMPKELKLSYRSPGEIQHFSKFYAGQMKEPIQLEITEKRHGTLVWDTEVKPVDLQLVAASAPPPFSGAAFVKENHRQLQARMGDLKGVLDDLQDNEVLTENEKELVEQEKTRQSKNEALLSMVEKKGDLALDVLFRSISERDPYLVSYLRQQNL
B4: DPP9, short isoform (DPP9S), co-expressed with CARD8 for cryo-EM (enzyme, human)
chain: MATTGTPTADRGDAAATDDPAARFQVQKHSWDGLRSIIHGSRKYSGLIVNKAPHDFQFVQKTDESGPHSHRLYYLGMPYGSRENSLLYSEIPKKVRKEALLLLSWKQMLDHFQATPHHGVYSREEELLRERKRLGVFGITSYDFHSESGLFLFQASNSLFHCRDGGKNGFMVSPMKPLEIKTQCSGPRMDPKICPADPAFFSFINNSDLWVANIETGEERRLTFCHQGLSNVLDDPKSAGVATFVIQEEFDRFTGYWWCPTASWEGSEGLKTLRILYEEVDESEVEVIHVPSPALEERKTDSYRYPRTGSKNPKIALKLAEFQTDSQGKIVSTQEKELVQPFSSLFPKVEYIARAGWTRDGKYAWAMFLDRPQQWLQLVLLPPALFIPSTENEEQRLASARAVPRNVQPYVVYEEVTNVWINVHDIFYPFPQSEGEDELCFLRANECKTGFCHLYKVTAVLKSQGYDWSEPFSPGEDEFKCPIKEEIALTSGEWEVLARHGSKIWVNEETKLVYFQGTKDTPLEHHLYVVSYEAAGEIVRLTTPGFSHSCSMSQNFDMFVSHYSSVSTPPCVHVYKLSGPDDDPLHKQPRFWASMMEAASCPPDYVPPEIFHFHTRSDVRLYGMIYKPHALQPGKKHPTVLFVYGGPQVQLVNNSFKGIKYLRLNTLASLGYAVVVIDGRGSCQRGLRFEGALKNQMGQVEIEDQVEGLQFVAEKYGFIDLSRVAIHGWSYGGFLSLMGLIHKPQVFKVAIAGAPVTVWMAYDTGYTERYMDVPENNQHGYEAGSVALHVEKLPNEPNRLLILHGFLDENVHFFHTNFLVSQLIRAGKPYQLQIYPNERHSIRCPESGEHYEVTLLHFLQEYL

Experiments:
Test in all cases: cryo-EM structure
[1] = target: B4
[2] = target: B4; remark: listed apart in the source
[3] = target: B1

## B1
[1]
  binding result: binds

B2: Full-length CARD8 S297A (autoproteolysis-deficient), co-expressed with DPP9S for cryo-EM (natural protein, human, UniProt Q9Y2G2-5 1-537, looked up)
chain: MEKKECPEKSSSSEEELPRRDSGSSRNIDASKLIRLQGSRKLLVDNSIRELQYTKTGIFFQAEACVTNDTVYRELPCVSETLCDISHFFQEDDETEAEPLLFRAVPECQLSGGDIPSVSEEQESSEGQDSGDICSEENQIVSSYASKVCFEIEEDYKNRQFLGPEGNVDVELIDKSTNRYSVWFPTAGWYLWSATGLGFLVRDEVTVTIAFGSWSQHLALDLQHHEQWLVGGPLFDVTAEPEEAVAEIHLPHFISLQAGEVDVSWFLVAHFKNEGMVLEHPARVEPFYAVLESPSFALMGILLRIASGTRLSIPITSNTLIYYHPHPEDIKFHLYLVPSDALLTKAIDDEEDRFHGVRLQTSPPMEPLNFGSSYIVSNSANLKVMPKELKLSYRSPGEIQHFSKFYAGQMKEPIQLEITEKRHGTLVWDTEVKPVDLQLVAASAPPPFSGAAFVKENHRQLQARMGDLKGVLDDLQDNEVLTENEKELVEQEKTRQSKNEALLSMVEKKGDLALDVLFRSISERDPYLVSYLRQQNL
[2]
  binding result: binds

B3: CARD8-CT (N-terminally degraded CARD8, UPA-CARD) in the purified CARD8-DPP9 complex (domain or fragment, human, UniProt Q9Y2G2-5 297-537, looked up)
chain: SLMGILLRIASGTRLSIPITSNTLIYYHPHPEDIKFHLYLVPSDALLTKAIDDEEDRFHGVRLQTSPPMEPLNFGSSYIVSNSANLKVMPKELKLSYRSPGEIQHFSKFYAGQMKEPIQLEITEKRHGTLVWDTEVKPVDLQLVAASAPPPFSGAAFVKENHRQLQARMGDLKGVLDDLQDNEVLTENEKELVEQEKTRQSKNEALLSMVEKKGDLALDVLFRSISERDPYLVSYLRQQNL
[3]
  binding result: binds

## B4
[3]
  stoichiometry N: 1
